From patent publication US20130263331A1

Experiments:
[1] = biological target: putative receptor(s) on brush border membrane vesicles (BBMV) prepared from midguts of third instars of the western corn rootworm (Diabrotica virgifera virgifera LeConte) (Diabrotica virgifera virgifera)
[2] = biological target: putative receptor(s) on brush border membrane vesicles (BBMV) prepared from midguts of third instars of the western corn rootworm (Diabrotica virgifera virgifera LeConte) (Diabrotica virgifera virgifera); test: Homologous competition: unlabeled Cry3Aa (0-2500 nM) against 5 nM 125I-Cry3Aa on 0.1 mg/ml BBMV; value at about 2500 nM competitor

Substance | Kd [1] | binding site concentration Bmax (pmole/mg BBMV) [1] | percent of bound 125I-Cry3Aa displaced [2]
Cry3Aa trypsin core (from UniProt P0A379 159-644) | 24 nM | 22 | 60%
Full-length Cry6Aa1 (from UniProt Q45757 1-475) | 10.1 nM | 0.66 | 
